Measurements reported in doi:10.64898/2025.12.22.695686.
Substitutions are numbered along the chain they refer to. Names may count otherwise. Blank lines part the entries; values can stand above or below the binder they belong to.

Experiments:
[1] = molecular target: Sgs3-MD (Sgs3 mucin domain repeat peptide) (Drosophila melanogaster)
[2] = molecular target: Sgs1-MD (Sgs1 mucin domain repeat peptide) (Drosophila melanogaster)

B1: PGANT5A^WT (amino acids 77–626) (enzyme)
chain: NEINTEKSLDGESGGALIMGQGFASGGISMTYPSVVLKKWFLAPSVQEAKGKPGEMGKPVKIPADMKDLMKEKFKENQFNLLASDMISLNRSLTDVRHEGCRRKHYASKLPTTSIVIVFHNEAWTTLLRTVWSVINRSPRALLKEIILVDDASERDFLGKQLEEYVAKLPVKTFVLRTEKRSGLIRARLLGAEHVSGEVITFLDAHCECTEGWLEPLLARIVQNRRTVVCPIIDVISDETFEYITASDSTWGGFNWKLNFRWYRVPSREMARRNNDRTAPLRTPTMAGGLFSIDKDYFYEIGSYDEGMDIWGGENLEMSFRIWQCGGILEIIPCSHVGHVFRDKSPYTFPGGVAKIVLHNAARVAEVWLDEWRDFYYSMSTGARKASAGDVSDRKALRDRLKCKSFRWYLENVYPESLMPLDYYYLGEIRNAETETCLDTMGRKYNEKVGISYCHGLGGNQVFAYTKRQQIMSDDLCLDASSSNGPVNMVRCHNMGGNQEWVYDAEEKWIRHTNTGQCLQRATRDDANTPLLRPCSYGKGQQWLMESKFK
KM for the acceptor peptide Sgs3-MD, Michaelis-Menten kinetics of O-glycosylation (UDP-Glo assay), fold against the corresponding Sgs1-MD parameter [1]: 10 fold lower
KM for the acceptor peptide Sgs1-MD, Michaelis-Menten kinetics of O-glycosylation (UDP-Glo assay), fold against PGANT5B^WT [2]: 0.7 fold lower

B2: PGANT5A^D419K (amino acids 77–626) (enzyme)
chain: B1 chain with D343K
KM for the acceptor peptide Sgs3-MD, Michaelis-Menten kinetics of O-glycosylation (UDP-Glo assay), fold against the corresponding Sgs1-MD parameter [1]: 10 fold lower
KM for the acceptor peptide Sgs1-MD, Michaelis-Menten kinetics of O-glycosylation (UDP-Glo assay), fold against PGANT5A^WT [2]: 0.6 fold higher

Further lines, results first:

KM for the acceptor peptide Sgs3-MD, Michaelis-Menten kinetics of O-glycosylation (UDP-Glo assay), fold against the corresponding Sgs1-MD parameter [1]: 10 fold lower
KM for the acceptor peptide Sgs1-MD, Michaelis-Menten kinetics of O-glycosylation (UDP-Glo assay), fold against PGANT5B^WT (fold decrease) [2]: 2
B3: PGANT5B^K419D (amino acids 77–626) (enzyme)
chain: NEINTEKSLDGESGGALIMGQGFASGGISMTYPSVVLKKWFLAPSVQEAKGKPGEMGKPVKIPADMKDLMKEKFKENQFNLLASDMISLNRSLTDVRHEGCRRKHYASKLPTTSIVIVFHNEAWTTLLRTVWSVINRSPRALLKEIILVDDASERDFLGKQLEEYVAKLPVKTFVLRTEKRSGLIRARLLGAEHVSGEVITFLDAHCECTEGWLEPLLARIVQNRRTVVCPIIDVISDETFEYITASDSTWGGFNWKLNFRWYRVPSREMARRNNDRTAPLRTPTMAGGLFSIDKDYFYEIGSYDEGMDIWGGENLEMSFRVWMCGGVLEIAPCSRVGHVFRDSTPYTFPGGTTEIVNHNNARLVEVWLDDWKEFYYSFYPGARKASAGDVSDRKALRDRLKCKSFRWYLENVYPESLMPLDYYYLGEIRNAETETCLDTMGRKYNEKVGISYCHGLGGNQVFAYTKRQQIMSDDLCLDASSSNGPVNMVRCHNMGGNQEWVYDAEEKWIRHTNTGQCLQRATRDDANTPLLRPCSYGKGQQWLMESKFK

KM for the acceptor peptide Sgs3-MD, Michaelis-Menten kinetics of O-glycosylation (UDP-Glo assay), fold against the corresponding Sgs1-MD parameter [1]: 10 fold lower
B4: PGANT5B^WT (amino acids 77–626) (enzyme)
chain: B3 chain with D343K
